The test system of series [1] is A875 cells. The series is described as follows: Melanoma cell line viability assay (CellTiter-Glo). The series is classed as cell-based, human. Particulars: ADC 1×10^−4 to 10 μg/mL, 5 days. For orientation: In ATP-based viability assays light output follows the ATP content of the culture.
Series [2] has as its system M016 cells. Briefly: Patient-derived low passage melanoma culture viability assay. Particulars: ADC 8 days. The series is classed as cell-based, human.
In series [3] the test system is SKMEL28R cells. Briefly: Melanoma cell line viability assay (CellTiter-Glo). The series is classed as cell-based, human. Particulars: ADC 1×10^−4 to 10 μg/mL, 5 days.
The test system of series [4] is A375R cells. The series is described as follows: Melanoma cell line viability assay (CellTiter-Glo). The series is classed as cell-based, human. Particulars: ADC 1×10^−4 to 10 μg/mL, 5 days.
Series [5] has as its system M019R cells. The series is described as follows: Patient-derived low passage melanoma culture viability assay. The series is classed as cell-based, human. The conditions noted are these: ADC 8 days.
For series [6], the system named is M082 cells. The description is as above. Particulars: ADC 8 days. The series is classed as cell-based, human.
In series [7] the test system is SKMEL28 cells. Briefly: Melanoma cell line viability assay (CellTiter-Glo). The series is classed as cell-based, human. The conditions noted are these: ADC 1×10^−4 to 10 μg/mL, 5 days.
Series [8] concerns SKMEL147 cells. The series is described as follows: Melanoma cell line viability assay (CellTiter-Glo). The series is classed as cell-based, human. Particulars: ADC 1×10^−4 to 10 μg/mL, 5 days.
Series [9] has as its system PC9-ER cells. Briefly: In vitro cytotoxicity assay, erlotinib-resistant NSCLC cell line. The series is classed as cell-based, human.
In series [10] the test system is MDA-MB-231 tumors. The series is described as follows: Orthotopic MDA-MB-231-luc D3H2LN breast cancer xenograft model. The series is classed as in vivo, SCID mice. Particulars: 4 biweekly doses of 3 mg/kg. The procedure:
The anti-tumor activity of IgG1-AXL-183-vcMMAE and IgG1-AXL-726-vcMMAE was evaluated in an orthotopic MDA-MB-231 D3H2LN xenograft model.
MDA-MB-231-luc D3H2LN Bioware cells (mammary gland adenocarcinoma; Perkin Elmer, Waltham, Mass.) were implanted in the mammary fat pad of 6-11 week old, female SCID (C.B-17/IcrPrkdc-scid/CRL) mice (Charles-River) under isofluorane anesthesia. Tumors were allowed to grow and mice were randomized when tumors reached a volume of ^˜325 mm^3. […] The treatment groups were: IgG1-b12, IgG1-b12-vcMMAE, IgG1-AXL-183-vcMMAE and IgG1-AXL-726-vcMMAE. The animals received a total of 4 biweekly doses of 3 mg/kg antibody or ADC starting at the day of randomization. Tumor volumes (mm^3) were monitored twice weekly and were calculated from caliper (PLEXX) measurements as: 0.52×(length)×(width)^2.

Series [11] concerns A431 tumors. The series is described as follows: Therapeutic A431 xenograft model. The conditions noted are these: 3 mg/kg intraperitoneally, model produces high levels of Gas6. The series is classed as in vivo, SCID mice. The procedure:
(§1) Tumor induction was performed by subcutaneous injection of 5×10^6 A431 or LCLC-103H tumor cells (both obtained from Leibniz-Institut—Deutsche Sammlung von Mikroorganismen and Zellkulturen GmbH (DSMZ)) in 200 μL PBS in the right flank of female SCID mice. Treatment was started 14-21 days after tumor cell inoculation, when the average tumor size was >100-200 mm^3 and distinct tumor growth was observed. Mice received a single injection or a total of 4 biweekly intraperitoneal injections with IgG1-AXL-vcMMAE ADCs or control antibody (unconjugated IgG1-b12), as indicated. Tumor volume was determined at least two times per week. Tumor volumes (mm^3) were calculated from caliper (PLEXX) measurements as: 0.52×(length)×(width)2.

The test system of series [12] is CEXF 773 tumors. Briefly: Cervix carcinoma PDX model CEXF 773. The series is classed as in vivo, NMRI nu/nu mice. The conditions noted are these: 4 mg/kg i.v. on day 0 and day 7. The procedure:
The anti-tumor activity of IgG1-AXL-183-vcMMAE and IgG1-AXL-726-vcMMAE was evaluated in the patient derived cervix carcinoma xenograft CEXF 773 model in NMRI nu/nu mice (Harlan, Netherlands). Experiments were performed by Oncotest (Freiburg, Germany).
Tumor fragments were obtained from xenografts in serial passage in nude mice. After removal from donor mice, tumors were cut into fragments (4-5 mm diameter) and placed in PBS (with 10% penicillin/streptomycin) until subcutaneous implantation. Mice under isofluorane anesthesia received unilateral, subcutaneous tumor implants in the flank. Tumors were allowed to grow until the tumor volume was 50-250 mm^3.
The treatment groups were: IgG1-b12, IgG1-b12-vcMMAE, IgG1-AXL-183-vcMMAE and IgG1-AXL-726-vcMMAE. The antibodies and ADCs were dosed intravenously (i.v.) at 4 mg/kg on the day of randomization (day 0) and on day 7. Tumor volumes (mm^3) were monitored twice weekly and were calculated from caliper (PLEXX) measurements as: 0.52×(length)×(width)^2.

Series [13] deals with LCLC-103H xenograft tumors. The series is described as follows: Therapeutic LCLC-103H xenograft model. The series is classed as in vivo, SCID mice. The procedure: 5×10^6 LCLC-103H (large cell lung carcinoma) tumor cells (obtained from Leibniz-Institut DSMZ-Deutsche Sammlung von Mikroorganismen and Zellkulturen GmbH (DSMZ)) in 200 μL PBS were injected subcutaneously in the right flank of female SCID mice. Starting 14-21 days after tumor cell inoculation, when the average tumor size was >100-200 mm^3 and distinct tumor growth was observed, a single injection with 1 mg/kg (20 μg/mouse) IgG1-AXL-vcMMAE antibodies (as described in Supplementary Example 1) or control (unconjugated IgG1-b12) was given intraperitoneally (100 μL/mouse). Tumor volume was determined at least two times per week. Tumor volumes (mm^3) were calculated from caliper (PLEXX) measurements as: 0.52×(length)×(width)^2.
as §1

Series [14] has as its system LCLC-103H cells. The conditions noted are these: 5 days.
Series [15] deals with MDA-MB231 cells. The conditions noted are these: MDA-MB231 (n = 2), 5 days.
Series [16] concerns A431 cells. Particulars: A431 (n = 3), 5 days.
Series [17] has as its system PAXF1657 tumors. Briefly: PAXF1657 pancreas cancer PDX model. The series is classed as in vivo, NMRI nu/nu mice. The procedure:
Human pancreas tumor tissue was subcutaneously implanted in the left flank of 5-7 weeks old female NMRI nu/nu mice. […] At day of randomization (day 0), the 3 ADCs were dosed intravenously (i.v.) at either 4 mg/kg or 2 mg/kg, and the control group received a single dose of IgG1-b12 (4 mg/kg). Tumor volumes (mm^3) were monitored twice weekly and were calculated from caliper (PLEXX) measurements as: 0.52×(length)×(width)^2.

Setting [18] is: Example 13: 3 mg/kg intraperitoneally.

As to `CCCS(=O)(=O)Nc1ccc(F)c(C(=O)c2c[nH]c3ncc(Cl)cc23)c1F` [PLX4720, N-(3-(5-chloro-1H-pyrrolo[2,3-b]pyridine-3-carbonyl)-2,4-difluorophenyl)propane-1-sulfonamide, reference compound], the “sensitivity of the cell line to the substance” value is “sensitive” in series [1]; “resistant” in series [3]; “resistant” in series [4]; “sensitive” in [7]; “resistant” in [8]. The “sensitivity of the culture to the substance” value in [2], in [5] and in [6] was “resistant” in each case.
Consider `C#Cc1cccc(Nc2ncnc3cc(OCCOC)c(OCCOC)cc23)c1` [erlotinib, reference compound], for which, in [9], the “sensitivity of the cell line (cell viability)” value was “acquired resistance”.

B1: IgG1-AXL-183-vcMMAE: IgG1-AXL-183 (FN1-binder) conjugated to vcMMAE (conjugate)
VH: QVQLQQWGAGLLKPSETLSLTCAVYGGSFSGYYWSWIRQPPGKGLEWIGEINQSGSTNYNPSLKSRVTISVDTSKNQFSLKLSSVTAADTSVYYCASGNWDHFFDYWGQGTLVTVSS
VL: DIQMTQSPSSVSASVGDRVTITCRASQGISSWLAWYQHKPGKAPKLLIYATSSLQSGVTSRFSGSGSGTDFTLTISSLQPEDFATYYCQQAKSFPWTFGQGTKVEIK
In the case of B1, the anti-tumor activity entry is “induced tumor regression” in series [10], “induced growth inhibition” in series [11], “induced tumor regression” in [12] and “induced tumor regression” in series [13] (setting [18]).

B2: IgG1-AXL-148-vcMMAE: IgG1-AXL-148 conjugated at cysteines to vcMMAE (conjugate)
VH: EVQLLESGGGLVQPGGSLRLSCAASGFTFSSYAMTWVRQAPGKGLEWVSAISISGGSTFYADSVKGRFTISRDNSKNTLYLQMNSLRAEDTAVYYCRGYSGYVYDAFDFWGQGTMVTVSS
VL: DIQMTQSPSSLSASVGDRVTITCRASQGISNWLAWYQQKPEKAPKSLIYAASSLQSGVPSRFSGSGSGTDFTLTISSLQPEDFATYYCQQYNSYPLTFGGGTKVEIK
Take B2: in series [14], the “Cytotoxicity EC50” value is 0.012 µg/mL. Besides, the “Cytotoxicity EC50 Mean” value in series [15] was 0.012 µg/mL; in series [16], 0.070 µg/mL. The anti-tumor activity entry in series [11] is listed as “induced growth inhibition”; in [17] (2 mg/kg i.v. at day 0), “significantly reduced the growth”; in series [17] (4 mg/kg i.v. at day 0), “induced tumor regression”; in series [17] (dose not stated in the sentence (FIG. 10B, 10C)) it was “dose-dependent antitumor activity”; in series [13] (Example 9: single injection 1 mg/kg intraperitoneally) it was “induced tumor regression”; in [13] (setting [18]), “induced tumor regression”.

B3: IgG1-AXL-726-vcMMAE: IgG1-AXL-726 (FN2-binder) conjugated to vcMMAE (conjugate)
VH: QVQLQQWGAGLLKPSETLSLTCAIDGGSFSGYYWSWIRQPPGKGLEWIGEISHSGRTNYNPSLKSRVTISIDTSKNQFSLKLSSVAAADTAVYYCARFITMIRGAIITHFDYWGQGALVTVSS
VL: DIQMTQSPSSLSASVGDRVTITCRASQGISSWLAWYQQKPEKAPKSLIYAASSLQSGVPSRFSGSGSGTDFTLTISSLQPEDFATYYCQQYHSYPYTFGQGTKLEIK
As for B3, the anti-tumor activity result in series [10] was “induced tumor regression”; in series [11], “induced growth inhibition”; in series [12], “induced tumor regression”; in series [13] (setting [18]), “induced tumor regression”.

Source of the values: US20200397913A1, “AXL-SPECIFIC ANTIBODY-DRUG CONJUGATES FOR CANCER TREATMENT” (GENMAB A/S, priority 2015, published 2020).
